Measurements from US20230338524A1.

Assays:
[1] = molecular target: mouse VEGFR2 (mouse) (UniProt P35918); assay: Blocking ELISA, panel 'mVEGF-mVEGFR2'; blocked ligand murine VEGF; antibody titrated (Log (M))
[2] = molecular target: soluble murine VEGFR2 (murine) (UniProt P35918); assay: ELISA, OD450, panel 'mVEGFR2', antibody titrated (Log (M))
Sequence of soluble murine VEGFR2 (murine) (P35918 20-762 limits assumed): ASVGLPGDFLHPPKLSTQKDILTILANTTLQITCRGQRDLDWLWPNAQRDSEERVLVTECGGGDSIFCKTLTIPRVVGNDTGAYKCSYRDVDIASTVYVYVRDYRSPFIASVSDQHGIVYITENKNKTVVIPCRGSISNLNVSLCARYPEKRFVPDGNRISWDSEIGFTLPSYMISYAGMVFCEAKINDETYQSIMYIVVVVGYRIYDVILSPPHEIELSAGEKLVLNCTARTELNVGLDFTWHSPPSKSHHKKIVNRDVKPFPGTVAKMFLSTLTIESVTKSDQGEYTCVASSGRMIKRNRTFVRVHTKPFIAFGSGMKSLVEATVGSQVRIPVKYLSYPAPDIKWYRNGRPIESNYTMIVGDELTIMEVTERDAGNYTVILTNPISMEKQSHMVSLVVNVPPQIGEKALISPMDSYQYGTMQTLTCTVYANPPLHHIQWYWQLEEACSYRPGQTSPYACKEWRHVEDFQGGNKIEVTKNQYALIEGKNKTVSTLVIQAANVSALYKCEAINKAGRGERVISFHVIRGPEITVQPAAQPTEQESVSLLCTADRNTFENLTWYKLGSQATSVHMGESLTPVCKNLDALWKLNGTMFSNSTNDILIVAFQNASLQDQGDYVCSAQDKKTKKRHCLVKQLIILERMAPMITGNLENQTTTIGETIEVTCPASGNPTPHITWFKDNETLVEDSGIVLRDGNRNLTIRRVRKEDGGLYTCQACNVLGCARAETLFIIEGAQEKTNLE

Sequence of mouse VEGFR2 (mouse) (P35918 20-762 limits assumed): as above

- IC50 (read off the curve) [1]: 0.5 nM
- EC50 (read off the curve) [2]: 0.3 nM
B1: DC101 (a murine monoclonal Ab that binds to murine VEGFR2) (antibody, from another filing, V domains shown)
VH: EVQLVETGGGLVQPGNSLKLSCATSGFIFSTTWMNWIRQTPGKRLEWLAQIEDKSNNYFISYSESVKGRFTISRDDSKSSVYLQMNNLKEEDTAIYYCSWKYRSNYYFDYWGQGVMVTVSS
VL: DIVLTQSPALAVSLEQRATISCKTSQNVDYYGISYLHWYQQKPGQQPKLLIYEGSNLASGIPARFSGSGSGTDFTLTIDPVEADDIVTYYCQQSKDYPYTFGAGTKLELKR
